Test results published in article PMC5780203.

Columns and labels:
[1] = target: PHD finger of human BPTF protein (human); assay: ITC
chromodomain of CBX5 = assay: ITC

fold weaker Kd than the native H3K4me3 peptide [1] [fold]	fold tighter binding than the H3KC9me3 peptide (chromodomain of CBX5) [fold]	Substance
13	–	H3KC4me3 peptide MLA (methyllysine analog of H3K4me3)
–	6	trimethylated H3 lysine 9 peptide
